Reference: article PMC7864074, “Functions of Gle1 are governed by two distinct modes of self-association” (The Journal of Biological Chemistry, 2020)

How the values were obtained:
[1] = target: SspB-Gle1^152–360 fusion protein (E. coli | human) (UniProt Q53GS7); experiment: SEC-MALS; ACCORD (forced dimerization by SspB); Superose 6 10/300 GL; 20 mM HEPES (pH 7.6), 200 mM NaCl, 5% glycerol, 0.5 mM TCEP, 0.05% azide
[2] = target: the molecule itself; experiment: SEC; S200 size-exclusion chromatography; 20 mM HEPES, pH 7.5, 200 mM NaCl, 0.5 mM TCEP, 10% glycerol; MBP as a size reference
[3] = target: the molecule itself; experiment: native gel or EMSA; 4–15% acrylamide gradient native PAGE, 150 V for 90 min, Coomassie staining

| Molecule | binding result [2] | also measured |
| --- | --- | --- |
| SspB-Gle1^152–360 fusion protein (from UniProt Q53GS7 152-360) |  | stoichiometry N [1]: 2 |
| MBP-Gle1^1–152 (domain or fragment, human, UniProt Q53GS7 1-152, looked up, source: E. coli Rosetta, purified (amylose resin eluted with maltose, ion exchange); not shown: MBP, N-terminal, kept) MPSEGRCWETLKALRSSDKGRLCYYRDWLLRREDVLEECMSLPKLSSYSGWVVEHVLPHMQENQPLSETSPSSTSASALDQPSFVPKSPDASSAFSPASPATPNGTKGKDESQHTESMVLQSSRGIKVEGCVRMYELVHRMKGTEGLRLWQE | binds |  |
| Gle1^(1–360 Δ45–54) (domain or fragment, human, UniProt Q53GS7 1-360, looked up, also called Gle1^(1–360 45–54); source: E. coli Rosetta, purified (amylose resin, on-column cleavage, S200 SEC)) MPSEGRCWETLKALRSSDKGRLCYYRDWLLRREDVLEECMSLPKHVLPHMQENQPLSETSPSSTSASALDQPSFVPKSPDASSAFSPASPATPNGTKGKDESQHTESMVLQSSRGIKVEGCVRMYELVHRMKGTEGLRLWQEEQERKVQALSEMASEQLKRFDEWKELKQHKEFQDLREVMEKSSREALGHQEKLKAEHRHRAKILNLKLREAEQQRVKQAEQERLRKEEGQIRLRALYALQEEMLQLSQQLDASEQHKALLKVDLAAFQTRGNQLCSLISGIIRASSESSYPTAESQAEAERALREMRDLLMNLGQEITRACEDKRRQDEEEAQVKLQEAQMQQGPEAH | binds |  |
| Gle1^(1–360 8D) (domain or fragment, human, UniProt Q53GS7 1-360, looked up, source: E. coli Rosetta, purified) MPSEGRCWETLKALRSSDKGRLCYYRDWLLRREDVLEECMSLPKLSSYSGWVVEHVLPHMQENQPLSETSPSSTSASALDQPSFVPKSPDASSAFSPASPATPNGTKGKDESQHTESMVLQSSRGIKVEGCVRMYELVHRMKGTEGLRLWQEEQERKVQALSEMASEQLKRFDEWKELKQHKEFQDLREVMEKSSREALGHQEKLKAEHRHRAKILNLKLREAEQQRVKQAEQERLRKEEGQIRLRADYADQEEMLQDSQQDDASEQHKALLKVDLAAFQTRGNQLCSLISGIIRASSESSYPTAESQAEAERADREDRDLDMNDGQEITRACEDKRRQDEEEAQVKLQEAQMQQGPEAH | binds |  |
| Gle1^1–360 (domain or fragment, human, UniProt Q53GS7 1-360, looked up, human Gle1, N-terminal region, residues 1-360; also called WT Gle1^1–360; Gle1 N-terminal region; source: E. coli Rosetta, purified (amylose resin, on-column cleavage, S200 SEC)) MPSEGRCWETLKALRSSDKGRLCYYRDWLLRREDVLEECMSLPKLSSYSGWVVEHVLPHMQENQPLSETSPSSTSASALDQPSFVPKSPDASSAFSPASPATPNGTKGKDESQHTESMVLQSSRGIKVEGCVRMYELVHRMKGTEGLRLWQEEQERKVQALSEMASEQLKRFDEWKELKQHKEFQDLREVMEKSSREALGHQEKLKAEHRHRAKILNLKLREAEQQRVKQAEQERLRKEEGQIRLRALYALQEEMLQLSQQLDASEQHKALLKVDLAAFQTRGNQLCSLISGIIRASSESSYPTAESQAEAERALREMRDLLMNLGQEITRACEDKRRQDEEEAQVKLQEAQMQQGPEAH | binds |  |
| Gle1^152–360 (domain or fragment, human, UniProt Q53GS7 152-360, looked up, also called coiled-coil domain; source: E. coli Rosetta, purified (amylose resin, on-column cleavage, 30% ammonium sulfate precipitation, S200 SEC)) EEQERKVQALSEMASEQLKRFDEWKELKQHKEFQDLREVMEKSSREALGHQEKLKAEHRHRAKILNLKLREAEQQRVKQAEQERLRKEEGQIRLRALYALQEEMLQLSQQLDASEQHKALLKVDLAAFQTRGNQLCSLISGIIRASSESSYPTAESQAEAERALREMRDLLMNLGQEITRACEDKRRQDEEEAQVKLQEAQMQQGPEAH |  | binding result [3]: binds |
